Results: patent publication US20190161551A1 (Regeneron, published 2019)

What was measured:
[1] = molecular target: T1, human TrkB extracellular domain (aa Cys32-His430) expressed with the Fc portion of human IgG1 at the … (human); assay: competition ELISA, 500 pM hTrkB-hFc pre-mixed with mAb, plate-coated hBDNF
T1 construct: also called hTrkB-hFc; hTrkB.hFc
Procedure: Experiments were carried out using the following procedure. Human BDNF or NT-4 were separately coated at a concentration of 0.5 μg/mL or 2 μg/mL, respectively, in PBS on a 96-well microtiter plate overnight at 4° C. […] Blocking solution and dilution buffer contained 5% (w/v) solution of BSA in PBS for assay with BDNF coat, or 0.5% (w/v) solution of BSA in PBS for assay with NT-4 coat. On separate microtiter plates, a constant amount of 500 pM of hTrkB-hFc protein was added to serial dilutions of antibodies with final concentrations ranging from 1.7 pM to 100 nM, and solutions with no antibody present. (The constant concentration of hTrkB-hFc for antibody inhibition assays was selected from the approximate midway point within the linear portion of individual binding curves of hTrkB-hFc to plate-coated hBDNF or hNT-4). After one hour incubation at room temperature, antibody-protein complexes with 500 pM constant concentration of hTrkB-hFc protein were transferred to microtiter plates coated with hBDNF or hNT-4. After one hour incubation at room temperature, the wells were washed, and plate-bound hTrkB-hFc was detected with anti-human Fcγ fragment specific goat polyclonal antibodies conjugated with horseradish peroxidase (JacksonImmunoResearch). The plate was then developed using TMB substrate solution (BD Biosciences) according to manufacturer's recommendation and absorbance at 450 nm was measured on a Victor plate reader (PerkinElmer™).
The ability of anti-TrkB antibodies to block TrkB binding to BDNF or NT-4 was assessed using two competition sandwich ELISAs. Human TrkB-hFc binding to hBDNF or hNT-4 coated on 96-well microtiter plates, in the presence of serially diluted antibodies or no antibody controls, were detected with HRP-conjugated anti-human Fcγ fragment specific goat polyclonal antibodies. IC₅₀ values were calculated and used as the potency indicator of antibody blocking hTrkB-hFc binding to hBDNF or hNT-4. In addition, the maximum blockade of 500 pM hTrkB-hFc with each antibody at the highest tested concentration was calculated and compared.

[2] = molecular target: T2, human TrkB extracellular domain expressed with a C-terminal myc-myc-hexahistidine tag (human, UniProt Q16620 32-430); assay: SPR, mAb captured (anti-hFc), 25C
T2 construct: also called hTrkB.mmH; hTRKB.mmH
Procedure: (§1) Equilibrium dissociation constants (KD values) for TrkB binding to purified anti-TrkB monoclonal antibodies were determined using a real-time surface plasmon resonance biosensor using a Biacore 4000 instrument. All binding studies were performed in 10 mM Hepes pH 7.4, 150 mM NaCl, 3 mM EDTA, and 0.05% v/v Surfactant Tween-20 (HBS-ET running buffer) at 25° C. and 37° C. […] Binding studies were performed on following TrkB reagents; human TrkB extracellular domain expressed with a C-terminal myc-myc-hexahistidine tag (hTRKB.mmH; SEQ ID NO: 76; Accession number NP_001018074.1), mouse TrkB extracellular domain expressed with a C-terminal myc-myc-hexahistidine tag (mTRKB.mmH; SEQ ID NO: 79; Accession number NP_001020245), rat TrkB extracellular domain expressed with a C-terminal myc-myc-hexahistidine tag (rTRKB.mmH; SEQ ID NO: 84; Accession number NP_036863.1), and human TrkB extracellular domain expressed with a C-terminal mouse IgG2a Fc tag (hTrkB-mFc; SEQ ID NO: 77; Accession number NP_001018074.1). […] Kinetic association (kₐ) and dissociation (kd) rate constants were determined by fitting the real-time binding sensorgrams to a 1:1 binding model with mass transport limitation using Scrubber 2.0c curve-fitting software. Binding dissociation equilibrium constants (KD) and dissociative half-lives (t½) were calculated from the kinetic rate constants as: […]

[3] = molecular target: T3, mouse TrkB extracellular domain expressed with a C-terminal myc-myc-hexahistidine tag (mouse, UniProt P15209 32-429); assay: SPR, mAb captured (anti-hFc), 25C
T3 construct: also called mTrkB.mmH; mTRKB.mmH
Procedure: as §1

[4] = molecular target: T4, human TrkB extracellular domain expressed with a C-terminal mouse IgG2a Fc tag (human); assay: SPR, mAb captured (anti-hFc), 25C
T4 construct: also called hTrkB-mFc; hTrkB.mFc
Procedure: as §1

[5] = molecular target: T5, rat TrkB extracellular domain expressed with a C-terminal myc-myc-hexahistidine tag (rat, UniProt Q63604 32-429); assay: SPR, mAb captured (anti-hFc), 25C
T5 construct: also called rTrkB.mmH; rTRKB.mmH
Procedure: as §1

mouse TrkB.hFc = molecular target: T6, mouse TrkB.hFc (mouse); assay: BLI Octet, captured mTrkB.hFc, 300 nM mAb, no ligand
T6 construct: also called mTrkB.hFc; mTrkB-hFc
Procedure: Blocking of anti-human TrkB or anti-mouse TrkB antibodies from binding to TrkB by BDNF or NT-4 was evaluated using a real-time bio-layer interferometry (BLI) based Octet HTX instrument. The entire study was performed in 10 mM HEPES pH 7.4, 300 mM NaCl, 3 mM EDTA, 1 mg/mL BSA, 0.02% NaN3 and 0.05% v/v Surfactant Tween-20 (HBS-EBT running buffer) at 25° C. All the samples were dispensed in a 384 tilted well plate and the plate was placed on the orbital shaker with the shake speed of 1000 rpm. hTrkB.mFc was captured on anti-mFc (AMC) Octet sensors while hTrkB.hFc or mTrkB.hFc were captured on anti-hFc (AHC) Octet sensors by dipping in wells containing 10 μg/mL of TrkB reagents for 2 minutes. hTrkB.mFc or hTrkB.hFc captured Octet biosensors were saturated by dipping in wells containing 20 nM of BDNF, hNT-4, or mNT-4 for 2 minutes followed by dipping Octet biosensors in wells containing 300 nM of different TrkB mAbs for 4 minutes. Binding of TrkB mAbs to the complex of TrkB and BDNF, hNT-4, or mNT-4 was determined using Scrubber 2.0c analysis software.

[6] = molecular target: mouse TrkB extracellular domain fused to the transmembrane and cytoplasmic domains of human TrkB, expressed … (mouse; human, UniProt Q16620 431-822, limits assumed); assay: cell-based or functional assay
Chain of mouse TrkB extracellular domain fused to the transmembrane and cytoplasmic domains of human TrkB, expressed … (Q16620 other isoform, or with tags, fused parts or gaps limits assumed, form in doubt): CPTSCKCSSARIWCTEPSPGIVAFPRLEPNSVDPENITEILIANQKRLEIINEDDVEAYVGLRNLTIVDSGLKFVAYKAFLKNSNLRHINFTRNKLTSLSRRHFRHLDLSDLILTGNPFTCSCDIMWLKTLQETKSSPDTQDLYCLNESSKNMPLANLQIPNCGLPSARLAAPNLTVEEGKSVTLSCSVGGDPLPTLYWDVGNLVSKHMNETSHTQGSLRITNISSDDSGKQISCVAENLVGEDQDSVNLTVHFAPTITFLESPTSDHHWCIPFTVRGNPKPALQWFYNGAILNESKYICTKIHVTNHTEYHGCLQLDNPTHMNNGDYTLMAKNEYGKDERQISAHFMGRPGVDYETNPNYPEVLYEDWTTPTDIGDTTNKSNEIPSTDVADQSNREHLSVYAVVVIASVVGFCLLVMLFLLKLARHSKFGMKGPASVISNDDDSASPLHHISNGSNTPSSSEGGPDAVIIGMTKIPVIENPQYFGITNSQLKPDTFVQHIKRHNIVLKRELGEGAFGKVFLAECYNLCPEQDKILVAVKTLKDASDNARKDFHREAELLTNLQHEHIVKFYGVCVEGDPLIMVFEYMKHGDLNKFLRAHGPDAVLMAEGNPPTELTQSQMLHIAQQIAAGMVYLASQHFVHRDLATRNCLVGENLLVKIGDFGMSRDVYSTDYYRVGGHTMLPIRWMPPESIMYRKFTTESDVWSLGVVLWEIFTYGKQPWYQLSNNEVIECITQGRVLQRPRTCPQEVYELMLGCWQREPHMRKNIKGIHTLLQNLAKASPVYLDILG

T3 sequence (P15209 other isoform, or with tags, fused parts or gaps): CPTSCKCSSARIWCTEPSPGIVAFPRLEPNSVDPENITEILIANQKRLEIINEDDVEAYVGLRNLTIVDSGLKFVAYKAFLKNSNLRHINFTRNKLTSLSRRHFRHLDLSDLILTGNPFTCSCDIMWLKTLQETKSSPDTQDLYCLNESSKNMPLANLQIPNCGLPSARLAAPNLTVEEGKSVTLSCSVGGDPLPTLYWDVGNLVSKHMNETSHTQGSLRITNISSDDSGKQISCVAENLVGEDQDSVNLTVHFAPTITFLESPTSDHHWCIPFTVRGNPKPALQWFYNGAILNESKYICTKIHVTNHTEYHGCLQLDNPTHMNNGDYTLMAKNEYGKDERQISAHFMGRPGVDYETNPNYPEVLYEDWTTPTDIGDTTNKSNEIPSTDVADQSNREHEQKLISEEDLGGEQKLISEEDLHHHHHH
T6 sequence (chain, as listed by the source limits assumed): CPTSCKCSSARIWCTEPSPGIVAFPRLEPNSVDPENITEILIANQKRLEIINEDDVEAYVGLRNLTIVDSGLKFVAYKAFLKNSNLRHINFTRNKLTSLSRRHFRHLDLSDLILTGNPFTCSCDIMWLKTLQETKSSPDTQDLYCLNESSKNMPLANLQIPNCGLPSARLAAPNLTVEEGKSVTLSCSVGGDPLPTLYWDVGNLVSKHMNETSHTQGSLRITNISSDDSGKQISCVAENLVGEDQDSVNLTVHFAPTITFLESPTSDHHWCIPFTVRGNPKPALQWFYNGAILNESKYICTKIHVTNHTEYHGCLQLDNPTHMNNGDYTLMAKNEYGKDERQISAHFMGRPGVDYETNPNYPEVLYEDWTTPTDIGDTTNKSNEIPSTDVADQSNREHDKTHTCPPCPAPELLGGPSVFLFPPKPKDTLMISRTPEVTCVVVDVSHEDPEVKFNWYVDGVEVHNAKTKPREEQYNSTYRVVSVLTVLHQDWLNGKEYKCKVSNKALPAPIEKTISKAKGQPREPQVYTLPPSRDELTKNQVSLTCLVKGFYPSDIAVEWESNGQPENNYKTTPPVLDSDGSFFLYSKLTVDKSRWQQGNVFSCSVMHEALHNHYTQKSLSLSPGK
T1 sequence (chain, as listed by the source limits assumed): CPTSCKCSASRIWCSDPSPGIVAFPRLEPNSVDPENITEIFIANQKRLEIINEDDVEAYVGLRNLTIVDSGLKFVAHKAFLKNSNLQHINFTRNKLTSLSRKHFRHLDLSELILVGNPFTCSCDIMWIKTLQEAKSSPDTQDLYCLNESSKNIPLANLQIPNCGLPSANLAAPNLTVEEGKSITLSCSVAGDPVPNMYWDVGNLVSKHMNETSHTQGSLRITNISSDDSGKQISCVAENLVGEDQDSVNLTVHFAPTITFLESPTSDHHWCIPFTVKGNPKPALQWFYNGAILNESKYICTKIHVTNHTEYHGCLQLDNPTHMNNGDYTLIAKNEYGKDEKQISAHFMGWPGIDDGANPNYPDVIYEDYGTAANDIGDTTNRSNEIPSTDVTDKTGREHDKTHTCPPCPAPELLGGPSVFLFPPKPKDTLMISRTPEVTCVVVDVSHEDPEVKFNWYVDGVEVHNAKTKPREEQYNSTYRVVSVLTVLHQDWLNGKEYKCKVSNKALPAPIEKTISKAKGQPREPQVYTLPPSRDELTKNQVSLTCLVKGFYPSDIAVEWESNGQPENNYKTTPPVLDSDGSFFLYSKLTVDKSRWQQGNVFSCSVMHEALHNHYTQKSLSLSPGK
T2 sequence (Q16620 other isoform, or with tags, fused parts or gaps): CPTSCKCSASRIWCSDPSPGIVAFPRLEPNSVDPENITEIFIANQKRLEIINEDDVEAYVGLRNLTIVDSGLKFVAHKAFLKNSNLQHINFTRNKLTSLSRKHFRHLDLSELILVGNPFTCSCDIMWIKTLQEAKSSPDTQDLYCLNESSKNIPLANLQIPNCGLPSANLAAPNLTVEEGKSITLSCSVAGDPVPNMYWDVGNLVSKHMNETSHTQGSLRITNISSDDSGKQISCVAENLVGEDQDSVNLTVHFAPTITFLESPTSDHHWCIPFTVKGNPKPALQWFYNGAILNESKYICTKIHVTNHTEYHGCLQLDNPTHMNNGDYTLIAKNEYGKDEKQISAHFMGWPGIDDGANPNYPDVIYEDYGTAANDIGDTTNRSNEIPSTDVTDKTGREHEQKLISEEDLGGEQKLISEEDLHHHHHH
T4 sequence (chain, as listed by the source limits assumed): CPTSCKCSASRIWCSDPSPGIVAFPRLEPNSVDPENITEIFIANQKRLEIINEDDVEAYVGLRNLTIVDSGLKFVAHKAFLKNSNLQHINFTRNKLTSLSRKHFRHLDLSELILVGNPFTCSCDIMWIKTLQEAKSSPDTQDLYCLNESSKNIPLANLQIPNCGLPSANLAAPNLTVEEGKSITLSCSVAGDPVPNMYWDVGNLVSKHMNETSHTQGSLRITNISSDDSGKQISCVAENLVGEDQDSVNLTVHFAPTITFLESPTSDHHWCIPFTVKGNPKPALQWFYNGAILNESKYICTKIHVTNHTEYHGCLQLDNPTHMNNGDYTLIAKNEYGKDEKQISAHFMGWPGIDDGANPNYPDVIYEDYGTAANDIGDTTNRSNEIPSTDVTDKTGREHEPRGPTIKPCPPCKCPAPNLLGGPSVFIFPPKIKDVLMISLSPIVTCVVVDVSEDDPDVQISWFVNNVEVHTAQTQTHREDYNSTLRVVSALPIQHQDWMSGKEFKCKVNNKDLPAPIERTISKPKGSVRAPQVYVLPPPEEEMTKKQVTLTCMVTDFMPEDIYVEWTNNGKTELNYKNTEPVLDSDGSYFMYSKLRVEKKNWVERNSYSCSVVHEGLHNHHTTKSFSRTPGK
T5 sequence (Q63604 other isoform, or with tags, fused parts or gaps): as the sequence (P15209 other isoform, or with tags, fused parts or gaps) above, with T3M, S9T, A10T, V32I, R63K, S84G, M153T, L185I, S394T counted along it

Row | % Blockade with 100 nM antibody [1] [%] | 100 nM hTrkB.mmH Bound (RU) [2] [RU] | Kd [2] [pM] | koff [2] [s⁻¹] | kon [2] [M⁻¹ s⁻¹] | t½ [2] [min] | 100 nM mTrkB.mmH Bound (RU) [3] [RU] | binding result [3] | 100 nM hTrkB-mFc Bound (RU) [4] [RU] | Kd [4] [pM] | koff [4] [s⁻¹] | kon [4] [M⁻¹ s⁻¹] | t½ [4] [min] | 100 nM rTrkB.mmH Bound (RU) [5] [RU] | antibody Binding (nm) (mouse TrkB.hFc) | Activation (%), SRE-luciferase, 100 pM BDNF [6] [%] | Activation (%), SRE-luciferase, No BDNF [6] [%] | EC50 (M), SRE-luciferase, 100 pM BDNF [6] [M] | EC50 (M), SRE-luciferase, No BDNF [6] [M] | IC50 [1] [pM] | Binder
1 | -56 | 30 | 13800 | 0.000845 | 61400 | 14 | 0 | no binding (tested: 100 nM) | 25 | 1220 | 7.98e-05 | 65200 | 145 | 0 |  |  |  |  |  |  | H4H9816P2 (antibody, human IgG4 S228P, kappa, V domains shown, Fully human anti-human TrkB agonist antibody, human IgG4 Fc; also called H4H9816P-L1) VH: EVQLVESGGGLVQPGGSLTLSCAASGFNFRDYEMIWVRQTPGKGLEWISYISNSGYTIYYADSVKGRFTISRDNARNSIYLQVNSLRAEDTAVYYCSRRTTMIRGIRAYYYYGLDVWGQGTTVTVSS VL: not shown
2 |  |  |  |  |  |  |  |  |  |  |  |  |  |  | 0.42 | 74 | 94 | 1.7e-11 | 3.6e-11 |  | M2aM14173N (antibody, mouse IgG2a, kappa, V domains shown, Anti-mouse TrkB antibody from hybridoma, mouse IgG2a Fc; also called surrogate anti-mouse TrkB antibody) VH: NVSLVESGGGSVKPGGSLQLSCAASGFTFSSSAMSWIRQTPEMRLEWVATISDRGSYTYYPDSVEGRFTISRDNAKNILYLQMSHLMSEDTAMYYCARGKGEKAYYTAFFAYWGQGSLVTVSA VL: DIQMTQSPASLSASVGETVTITCRASENIYSYLAWYQQKPGKSPHLLVHNAETLAEGVPSRFSGSGSGPQFSLKINSLQPGDSGTYYCQHHYSSPWTFGGGTKLEIKR
3 | 93 | 20 | 21700 | 0.000867 | 40000 | 13 | -1 |  | 14 | 4480 | 0.000168 | 37400 | 69 | -1 |  |  |  |  |  | 150 | H4H9780P (antibody, human IgG4 S228P, kappa, V domains shown, Fully human anti-human TrkB agonist antibody, human IgG4 Fc; also called H4H9780P-L1) VH: QVQLVESGGGVVQPGRSLRLSCAASGFSFSSFGMHWVRQAPGKGLEWVSVISYDGINTYYTDSVKGRFTISRDNSKNTLYLQMNGLRAEDTALYYCVQGSIGTVFEYWGQGTLVTVSS VL: DIQMTQSPSSLSASVGDRVTITCRASQGISNYLAWYQQKPGKVPKLLIYAASTLQSGVPSRFGGSGSGTDFTLTISSLQPEDVATYYCQKYTSAPFTFGPGTKVDIKR
4 | 6 | 63 | 545 | 0.000686 | 1.26e+06 | 17 | -2 |  | 69 | 31.1 | 5.95e-05 | 1.91e+06 | 194 | -1 |  |  |  |  |  |  | H4H9814P (antibody, human IgG4 S228P, kappa, V domains shown, Fully human anti-human TrkB agonist antibody, human IgG4 Fc; also called H4H9814P-L1) VH: EVQLVESGGGLVQPGGSLKLSCTASGFTFSGSVIHWVRQASGKGLEWIGRIRNKANSYATAYGASVTGRFTISRDDSKNTAYLQMNSLKTEDTAVYYCTFPGVVGRGGFDYWGQGTLVTVSS VL: DIVMTQSPDSLAVSLGEGATINCMSSQSVLFSSNNKNYLAWYQQKPGQPPKLLFYWASTRESGVPDRFGGSGSGTDFSLTINSLQTEDVAVYYCLQYYSIPWTFGQGTKVEIKR
5 |  |  |  |  |  |  |  |  |  |  |  |  |  |  | 0.42 | 75 | 87 | 2.1e-11 | 3.4e-11 |  | M2aM14179N (antibody, mouse IgG2a, kappa, V domains shown, Anti-mouse TrkB antibody from hybridoma, mouse IgG2a Fc; also called surrogate anti-mouse TrkB antibody) VH: EVQLQQSGPELVKPGASVKISCKASGYTLTDYYMNWVKQSHGKSLEWIGDINPNNGGTSYNQKFKGKATLTVDKSSSTAYMELRSLTSEDSAVYYCARGAYYSNYFDYWGQGTTLTVSS VL: DIVMSQSPSSLAVSAGEKVTMSCKSSQSLLNSRTRKNYLAWYQQKPGQSPKLLIYWASTRESGVPDRFTGSGSGTDFTLTISSVQAEDLAVYYCKQSYILFTFGSGTQLEIKR
6 | 97 |  |  |  |  |  |  |  |  |  |  |  |  |  | 0.42 | 69 | 85 | 4.2e-11 | 4.3e-11 | 170 | H1M8037C (antibody, mouse IgG1, kappa, V domains shown, captured by anti-mFc in SPR; also called Comparator; comparator anti-TrkB monoclonal antibody) VH: QVQLVQSGAEVKKPGASVKVSCKASGYTFTNYDIIWVRQAPGQGLEWMGYINPYNDGTKYNEKFKGRVTMTRDTSTSTVYMELSSLRSEDTAVYYCARLLKYRRFRYYAIDYWGQGTTVTVSS VL: DIQMTQSPSSLSASVGDRVTITCRTSENVYSNLAWYQQKPGKAPKLLIYAASNLQSGVPSRFSGSGSGTDYTFTISSLQPEDIATYYCQHFWGSPFTFGQGTKLEIKR
